Measured values taken from the DeepSol protein solubility set.

test: soluble on expression in E. coli; label from the status in PepcDB or PDB records

Sequence	soluble on expression in E. coli
MGSDKIHHHHHHMKFCIIGYPVRHSISPRLYNEYFKRAGMNHSYGMEEIPPESFDTEIRRILEEYDGFNATIPHKERVMRYVEPSEDAQRIKAVNCVFRGKGYNTDWVGVVKSLEGVEVKEPVVVVGAGGAARAVIYALLQMGVKDIWVVNRTIERAKALDFPVKIFSLDQLDEVVKKAKSLFNTTSVGMKGEELPVSDDSLKNLSLVYDVIYFDTPLVVKARKLGVKHIIKGNLMFYYQAMENLKIWGIYDEEVFKEVFGEVLK	not soluble
MDYTPHTEEEIREMLRRVGAASLEDLFAHLPKEILSPPIDLPEPLPEWKVLEELRRLAAQNLPAHKAFLGGGVRSHHVPPVVQALAARGEFLTAYTPYQPEVSQGVLQATFEYQTMIAELAGLEIANASMYDGATALAEGVLLALRETGRMGVLVSQGVHPEYRAVLRAYLEAVGAKLLTLPLEGGRTPLPEVGEEVGAVVVQNPNFLGALEDLGPFAEAAHGAGALFVAVADPLSLGVLKPPGAYGADIAVGDGQSLGLPMGFGGPHFGFLATKKAFVRQLPGRLVSETVDVEGRRGFILTLQAREQYIRRAKAKSNITTNAQLTALMGAMYLAALGPEGLREVALKSVEMAHKLHALLLEVPGVRPFTPKPFFNEFALALPKDPEAVRRALAERGFHGATPVPREYGENLALFAATELHEEEDLLALREALKEVLA	soluble
MSLRGNFFSFVRISGQSMSPNLVNNQIVLLEKKANVSRGTVIVSKTNNLQKQNTGVQDIALRVVALPGDKVNYKKGQLYVNGKKVNQSYISSQVKTETGMSIDTGWSINSLSLSKNWPKSQRNIKKVQKNSYFVLADNRIDPVDSRQYGLIKKRQIEGVVKVFFLGNKNKDEGHHHHHH	not soluble
MGSDKIHHHHHHMNPINWLVLVATVAGRNGTLRVRLWRQMKAIGAAALRDGVYLLPARPELRQMLANWRDELLAADGMAHVLQVVEDDPATQAGWRALFDRSEAYQQWGEALAALLAQPPGAESDARRSLRQLRKELEAIAAIDFFAGESLKSARRQCNDAEKWLTRHYSPDEPLAVGGDIPRLELADYQQRLWATRARPWVDRVASAWLIRRFIDPAARFAWLTDVHACPAEALGFDFDGAAFTHIGERVTFEVLLASFGLEHDPALSRLGELVHALDVGGSVVPEGTGFEAVLGGSRSRIADDDLLLADISNVLDSLYAHFQEAARPQGSRAPTL	not soluble
MIELKHLRTLQALRNTGSLAAAATQLHQTQSALSHQFSDLEQRLGFRLFVRKSQPLRFTTQGEILLQLAEQVLPQIKQALQTCNEPHQTALRIAIECHSCIQWLTPALDNFHKHWPQVTMDFKSGVTFDPQPALQQGELDLVLTSDILPRSGLHYSPMFDFEVRLVLAPDHPLANKDRIEPEDLAPEVLMIYPVQRQRLDVWRHFLQPAGVSPSSKNVDNTLLLIQMVSARMGIAALPHWVVESFERQGLVVTKTLGEGLWSRLYAAVRDGEQRQPVTEAFIRSARQHACDHLPFVKDAVRSNAGVPTAKPLSPQLQ	not soluble
KSIYIQSPYFIPDQAFLDSIKIAALGGVDVNIMIPNKPDHPFVFWATLKNAASLLDAGVKVFHYDNGFLHSKTLVIDDEIASVGTANMDHRSFTLNFEVNAFIYDQQIAKKLKQAFIDDLAVSSELTKARYAKR	not soluble
MLTEIGKIIRQRRQQHGITIEQLAEQSNVSISLISRLERGKVDNIKLQSLTAIAETLNLKIADFFRDELLQSPNVVALLDYLSDLPAHQREELAGTLLKLLRLSKS	not soluble
NIITVTLNMERHHFLGISIVGQSNDRGDGGIYIGSIMKGGAVAADGRIEPGDMLLQVNDVNFENMSNDDAVRVLREIVSQTGPISLTVAK	soluble
MKLESLVEEARQCQDRTVAVAAAEDEEVIEAVAMALEHRLGRFVLYGDRERLGRLLKEKGCARFSDVDVVHANSIGQAAELAVRAVHLNEADALMKGHVPTATLLKAVLNKEYGLRTGKVLSHVAVFEVPEFDRFVIVTDAAMNIAPDLEQKAQIVNNAVSIARSIGIERPKVAALAAVETVNPAMPATVDAAALAMMQKRGQIEHCLLDGPLALDNAVSLAAAKHKRIESEVAGQADILLVPDIESGNMLYKSLVYFANARVGAVIAGAKAPIVLTSRADSAESKLYSLALAICSAAK	not soluble
LKDFRYGIRLTGTTIKNEVISLGGKRIASGDIGAGKSVQMTEEGKPIKYFYGYNVIGIFQNEAQIKDYNERAAAATGNAGQQYQNNVGPGDLIYEDVDGDGYITANDRKDLGSPTPKFIGGLGISAFWKGFDLSIDFQGNFGNKIFNAKQVERFSGSDNWDRSFLDRWTPENPNTMTPRMTLEGNNYQVSSRYVESGSYVKLQTVELGYTFPKSWMQKVSVQNLRVYFSGNNLAYFTGYNGFTPEVLGGIDRQIYPVTATCRFGLNVTF	not soluble
MSLLLIVAGHDPTGAGLRADIATAEALGVPAVSLPTLLSLQDEGVELVEPVDSRFMSDCLARYVPRCEVVKVGAVPTLKTFEILAKRLRDLTVVWDPVFRAEAGGELSEATPEEALETFGETVDILTPNTEELSQLVGREVRTTVEAELAARELVEEYGLTGVLVTGGHSVDRRDVWVPAEGNTIAWEVPPGEGAHGSGCVLSTALACFLVRGLDPETAVERAVRFARAAVREARNTPFGRVADPVAQIRRDATLGKATQHVIRALEIIESDPAFARAIPQVGMNVAEVFDPSRGLEGVVGLSGRIVLDGDRPTAVGRPVPGGSKHVGTVALTAHRLDPSVRAAVNARYDEELIERARDLGFVVSSFDRSEEPEEVDSTMEWGTEVAFRRADDTPDVVYDEGDVGKEPMIRVLGKSAVEAVTKLRMLLGCVVGEGHHHHHH	soluble
MSLCRRRLATWLLDGSQPPTLLLPEQEGINGIRFPIWLDENGKRVAADCPQARQEMINVWPLPLEPWLPASERRAVRLPPASTSCPPYGHDAQLPLQLTGVRDGAIIKRLPGAAEATLPLQSSGGAGERWWFLNGEPLTERGRNVTLHLTDKGDYQLLVMDDVGQIATVKFVMQEGHHHHHH	soluble
MNMKTIEDVFIHLLSDTYSAEKQLTRALAKLARATSNEKLSQAFHAHLEETHGQIERIDQVVESESNLKIKRMKCVAMEGLIEEANEVIESTEKNEVRDAALIAAAQKVEHYEIASYGTLATLAEQLGYRKAAKLLKETLEEEKATDIKLTDLALNNVNKKAENKA	soluble
LRPEDFTTLLQTADFRLRLLEAIAAATRRVYICALYLENEEAGQEMLDALYRAKQRNPQLDVRVMVDWHRAQRGRIGEDQSHCNASWYREEAARRELDIPIYGVPVQTRELFGVLHLKGFVIDDTVFYSGASLNNVYLHKLDKYRFDRYHLIRSPELADAMAGFMAEQFFNDPAVFRLD	not soluble
MTILFARNIEKGFGDRTLFTLPSLEIQAQDRIGIVGVNGAGKSTLLQILSKEIEADKGIVTHHSSISIIPQISEELPKVASSTAKGKWNISNISNSMSGGERMRLKIAHALEQDAGILFADEPTSHLDMFGTEQLEKALLSYKGALVLISHDREFLDNICTKIIEIEDGIIQEYKGNYSNYRKQKERERTQKQAEYEQYINEKERLEKSILQKKQRASSMTKIPTRFSSSESKLYKLSGANGQEQVSKAAKALETRLEKLEKKEKPKELSQAQFDVQYHTPIHSKVAVQFNKATKKIGDLTLFKNMNGTIAPGAKLAILGANGSGKTTLFNMLLANERGIQLSKSCKIGYFEQTLSILKTDKTILENVLEETNYTESFVRTILARLLFRREDVHKPVHVLSGGERMKVALAKVFLGNYNMLLLDEPTNYLDLATQEELESMLQEYPGTILFISHDRAFIRSVADHILQVDESEPRVFHGNYEQYTNRTADASVNVTAQELLRLQTKLTEIIGRISIPNHHDDITSLEQEYETLLVKIRKCKEAL	not soluble
MGSDKIHHHHHHMSSDVRKALDPGTPYSRTLKQYSIDEKLAIISHAKNHGNRAAGREFNVAESSIREWRKNENKLIHNRDAAAARLNAQSSHSSGPARLNNMNNNNNNNHNHSKNNNIQYTQTVFPRRTPDDIVKHIQIAQITQLAMMKMDFTSLARIAPFLQAHQHQQQAQAKPDSISTASSVVGTPSSISSSSSTPPPSTSPVPTSSGSGRRKPRCPMKIVVAESNNPVNIEEIQENIDE	not soluble
MSLTDLIDIHCHLLPAVDDGSKSIEETLSLIDLLEEIGVKQHILTPHIMEEYPSNDAIFLRARFEELLAAITPDKASRLRLAAEYMLDVAFLDRLAEPLLTLGDRYILVETSYMAPPIGLMGLLADLRFKGLSPVLAHPERYLYMEEKDYVAIKKQGVMFQLNLFSLFGAYNSSASEKAYALLEAGYYDLIGTDIHHLQPIARLLSEASLPPDLEGKIKSLVENNTRLFSEGHHHHHH	not soluble
MSRFAPATPLLLSLLLTSCSPAQGVRVERITGGGMLYTVATVDPARDQLTLHWLNPATGKPYSSFAQLGSRLGKQGKKLLFATNSGIYMPGPKPLGLHVEGGKTLVGLNNAGKGGGNFALLPNGVFWLRGKKAGVTETQAYRKLGLAPDYATQSGPLLVANGKLHPDFNKSGTSFKVRSGVGVCGGGKVRFAISAGPVNFYSFATFFRDTLGCPDALYLDGSISAYATPDTDTQFTEFAGIWAVTARLEHHHHHH	soluble
MCSALVVAAPHSGSGKTTVTAAIARYHRVQGRKVTVFKVGPDFIDPMILRQASGELVYQLDLWLVGEQGCRALLHRAAMDSDLILIEGVMGLFDGTPSSADLAKYFNIPVLGVIDAKAMAQTFAAVTFGLAKFCEDLPFSGVIANRVNTERHAELLSVSLPKAFRFYGRIPKDDTITLPERHLGLVQAQELSDIDVQLDKAASHIANTGLTELPSQVEFFAQEDDNQENIIEGALAGTRIIIIRDSAFSFIYAANIAFLTQTGAELIYCSAMADVHLPDGDILYIPGGYPELYAEQLMNNVTFLSDIRAFSASNKPIVAECGGMLYLLEQLTDMEGQQFSMLGLMPGKATMQKKLAAIGSQWVPLPSFADAAEDSADNIMRGHSFHYSCAEIELEPSSQTTHHPSERAGEYVYQHNNILASYMHWYFPSNPSLTLRIFDKARYLLEHHHHHH	soluble
MSEADQALVGPKADEPSPPAEEKDEGGGKEAAADAAPGPSASFRLMVTRREPAVKLQYAVSGLEPLSWSEDHRVSVSTARSVAVLELICDVHNPGQDLVIHRTSVPAPLNSCLLKVGSKTEVAECKEKFASSKDPTISQTFMLDRMFNPEGKALPPMRGFKYTSWSPMGCDANGRCLLAALTMDNRLTVQVNLNRLQWVQLVDLTEIYGDRLYETSYRLSKNEAPEGNLGDFAEFQRRHSMQTPVRMEWSSICTTQQVKHNNECRDVSS	not soluble
SLGLKAAQKTLFPLRSIDDVVRLFAAELGREEPDLVLLSLVLGFVEHFLAVNRVIPTNVPELTFQPSPAPDPPGGLTYFPVADLSIIAALYARFTAQIRGAVDLSLYPREGGVSSRELVKKVSDVIWNSLSRSYFKDRAHIQSLFSFITGWSPVGTKLDSSGVAFAVVGACQALGLRDVHLALSEDHAWVVFGPNGEQTAEVTWHGKGNEDRRGQTVNAGVAERSWLYLKGSYMRCDRKMEVAFMVCAINPSIDLHTDSLELLQLQQKLLWLLYDLGHLERYPMALGNLADLEELEPTPGRPDPLTLYHKGIASAKTYYRDEHIYPYMYLAGYHCRNRNVREALQAWADTATVIQDYNYCREDEEIYKEFFEVANDVIPNLLKEAASLLEAGEERPGEQSQGTQSQGSALQDPECFAHLLRFYDGICKWEEGSPTPVLHVGWATFLVQSLGRFEGQVRQKVRIVSREAEAAEAEEPWGEEAREGRRRGPRRESKPEEPPPPKKPALDKGLGTGQGAVSGPPRKPPGTVAGTARGPEGGSTAQVPAPAASPPPEGPVLTFQSEKMKGMKELLVATKINSSAIKLQLTAQSQVQMKKQKVSTPSDYTLSFLKRQRKG	soluble
